# Laboratory results from paper PMC9389230, “Connective tissue growth factor-targeting DNA aptamer suppresses pannus formation as diagnostics and therapeutics for rheumatoid arthritis”.
# Experiments:
# [1] = target: CTGF (CCN2) (UniProt P29279 27-349); test: SPR; SPR: PBS running buffer, CTGF on CM5 chip, aptamer 9.375-600 nM, 10 ul/min (SA chip with biotinylated aptamer for cytokines and CTGF deletion mutants); dot blot: nitrocellulose, 10% BSA block, 1 uM biotinylated aptamer, room temperature; pH not stated; details: protein: commercial; label: biotin or Cy5 depending on assay
# [2] = target: murine CTGF (SPR) (mouse, UniProt P29268 26-348); test: as above; details: protein: recombinant; label: biotin or Cy5 depending on assay
# Sequence of murine CTGF (SPR) (P29268 26-348): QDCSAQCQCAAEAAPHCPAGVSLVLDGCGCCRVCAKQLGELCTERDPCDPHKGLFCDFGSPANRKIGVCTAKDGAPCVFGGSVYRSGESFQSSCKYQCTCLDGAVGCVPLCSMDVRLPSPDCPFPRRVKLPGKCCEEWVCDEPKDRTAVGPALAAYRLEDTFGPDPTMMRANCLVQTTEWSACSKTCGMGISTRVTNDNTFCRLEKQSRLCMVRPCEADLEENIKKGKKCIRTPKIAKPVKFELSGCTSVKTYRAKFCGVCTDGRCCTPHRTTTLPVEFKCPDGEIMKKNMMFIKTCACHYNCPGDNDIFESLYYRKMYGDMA
# Sequence of CTGF (CCN2) (P29279 27-349): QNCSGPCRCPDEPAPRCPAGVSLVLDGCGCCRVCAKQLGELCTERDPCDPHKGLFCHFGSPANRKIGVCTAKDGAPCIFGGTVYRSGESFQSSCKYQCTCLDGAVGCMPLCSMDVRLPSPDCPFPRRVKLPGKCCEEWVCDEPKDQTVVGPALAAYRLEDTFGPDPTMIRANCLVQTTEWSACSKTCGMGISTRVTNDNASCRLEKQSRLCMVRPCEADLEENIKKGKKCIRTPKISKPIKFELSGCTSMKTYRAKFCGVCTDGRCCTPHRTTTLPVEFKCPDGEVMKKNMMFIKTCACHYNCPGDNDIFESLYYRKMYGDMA
binder,measurement,setting,value
"AGGCCGGGAGGGTACCCATTGATGGTGTGATGACTGCCT (ssDNA, 3' PEG (high molecular mass)) [AptW2-1-39-PEG]",Kd,[1],7.86 nM
same,binding result,[2],binds
